Experimental data as given in paper doi:10.1101/2021.04.08.438944.

Columns and labels:
[1] = biological target: DNAJB14-ΔDUF tagged with FLAG (human); experiment: co-IP
[2] = biological target: DNAJB14-ΔDUF tagged with FLAG (human); experiment: co-IP; remark: listed apart in the source

DNAJB14-ΔDUF tagged with FLAG (human), sequence (Q8TBM8 whole entry, stated change not applied): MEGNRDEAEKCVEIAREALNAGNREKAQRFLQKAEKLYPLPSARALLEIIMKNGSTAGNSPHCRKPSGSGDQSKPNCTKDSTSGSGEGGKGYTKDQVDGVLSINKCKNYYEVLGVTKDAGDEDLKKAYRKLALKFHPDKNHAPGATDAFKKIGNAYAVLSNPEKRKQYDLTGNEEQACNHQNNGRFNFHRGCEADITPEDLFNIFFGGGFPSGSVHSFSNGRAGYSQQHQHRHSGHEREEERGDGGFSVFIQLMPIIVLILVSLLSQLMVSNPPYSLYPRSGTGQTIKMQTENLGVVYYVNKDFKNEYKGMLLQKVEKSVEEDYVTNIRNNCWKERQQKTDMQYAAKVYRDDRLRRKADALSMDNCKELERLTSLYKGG

Row | interaction left relative to DNAJB14-FL (co-IP densitometry) [1] | fold lower than DNAJB14-FL (co-IP densitometry) [2] | Molecule
1 | 50% | – | HSP70 (from UniProt P0DMV8 1-641) (natural protein)
2 | – | 3 fold lower | DNAJB12-FL tagged with mOrange (natural protein) MESNKDEAERCISIALKAIQSNQPDRALRFLEKAQRLYPTPRVRALIESLNQKPQTAGDQPPPTDTTHATHRKAGGTDAPSANGEAGGESTKGYTAEQVAAVKRVKQCKDYYEILGVSRGASDEDLKKAYRRLALKFHPDKNHAPGATEAFKAIGTAYAVLSNPEKRKQYDQFGDDKSQAARHGHGHGDFHRGFEADISPEDLFNMFFGGGFPSSNVHVYSNGRMRYTYQQRQDRRDNQGDGGLGVFVQLMPILILILVSALSQLMVSSPPYSLSPRPSVGHIHRRVTDHLGVVYYVGDTFSEEYTGSSLKTVERNVEDDYIANLRNNCWKEKQQKEGLLYRARYFGDTDMYHRAQKMGTPSCSRLSEVQASLHG
